# Measured values from the nanobody polyreactivity screen of Harvey et al. (2022).
# Experiment: yeast display, Sf9 membrane polyspecificity reagent, FACS + sequencing; frameworks hold sequencing errors
# Outline: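 After 36–48 hours of galactose induction, yeast (Saccharomyces cerevisiae BJ5465) displaying a synthetic nanobody library were stained at 4 °C for 1 hour with 10% biotinylated, detergent-solubilized Sf9 membrane reagent. Streptavidin microbeads enriched the stained cells before FACS sorting into low and high (top ~1%) gates on anti-HA and streptavidin fluorescence. Each clone's polyreactivity label reflects its gate of origin.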
row,Sequence,polyreactivity (PSR sort gate)
1,QDQLVESGGGLVQAGGSLRLSCAASGSTFVYYAMGWYRQAPGKERELVAAISRTGNTYYADSVKGRFTISRDNAKNTVYLQMNSLKPEDSAVYYCAKDYWRAYGSYEYWGQGTQVTVSS,low polyreactivity
2,QVQLVESGGGLVQAGGSLRLSCAASGRIFASYAMGWYRQAPGKERELVAAISLSGGSTYYADSVKGRFTISRDNAKNTVYLQMNSLKPEDTAVYYCAAKNYRRYRDYYWGQGTQVTVSS,high polyreactivity
3,QVQLQETRGGLDQAGDSLRLRCAASVSTLPVYTIARYRKAAVKEREFVAANTYTGGRTYYSDSVKGRFTISRDNAKNSVYLQMKSLKPDDTAVYYCAAEYGTYFVRYFAGASYRYGYWGQGTQVTVSS,low polyreactivity
4,QVQLVESGGGLVQAVGSLRLSFAASGFTFWYYPMGWYRQAPGKERELLAAITSSGGSTYYADSEKGRFTISRDYAKITVYLQMNSLKPEDTAVYYCAAGAPYRYYYCGQGTQVTVSS,high polyreactivity
5,QVQLVESGGGLVQSGGSLRLSCAASGSTFSINPMGWYRQAPGKERELFAAITWRGVRTYYADSVKGRFTISRDNAKNTVYFQMNSLKPEDTAVYYCAADVVVAGHPGFDYWGQGTQVTVSS,high polyreactivity
6,QVQLVESGGGLVQAGGSHRLSFAASGSIFWRNAMGWYRQAPGKERELVAVISGGSTYADSVKGRFTISRDNAKNTVYLKMNSLKPEDTAVYFCNADLYVSSYPKGYDYWGQGTQVTVSS,low polyreactivity
7,QVQLVESGGGLVQAGGSLRLSCAASGSTFYYNAMGWYRQAPGKEREFVAAISSRGGSTYYADSVKGRFTISRDNAKNTVYLQMNSLKPEDTAVYYCAAKYRHRYDWGQGTQVTVSS,high polyreactivity
8,QVQLVESGGGLVQAGGSLRLSCAASARIFPVYAMGWYRQAPGKERELVAAISRSAGRTYYADSVKGRFTISRDNAKNTVYLQMNRLKPEDTAVYFCAAQSPYGYDYWGQGTQVTVSS,low polyreactivity
9,QVQLVESGGGLVQAGGSLRLSCAASGRIFSEYAMGWYRQAPGKERELVASISTSGGSTYYADSVKGRFTISRDNAKNTVYLQMNSLKPEDTAVYYCNVAYSRYPSYTYGYDHWGQGTQVTVSS,high polyreactivity
10,QVQLVESGGGLVQAGGSLRLSCAASGITFNRNAMGWYRQAPGKERELVAAISSDGNTNYADSVKGRFTISRDNAKNTVYLQMNSLKPEDTAVYYCAAPVIQITDVWYDAETYPDYDYWGQGTQVTVSS,low polyreactivity
11,QVQLVESGGGLVQAGGSLRLSCAASGSIFYPYAMGWYRQAPGKERELVAAISWSGTRTYYADSVKGRFTISRDNAKNTVYLQMNSLKPEDTAVYYCAAYLPGYREQVDTNSWGQGTQVTVSS,low polyreactivity
12,QVQLVESGGALVQAGGSLRLSCAASGSIFDQYTMRWYRQAPGKDRELVAAIRFSGGSTSYADSVKGRFTISRDNAKNTVYLQMNSLKPDDTAVYYCNADSQPWRFGYWGQGTQVTVSS,low polyreactivity
13,QVQLVESGGGLVQAGGSLRLSCAASGSTFSDYAMGWYRQAPGKERELVAAISSSGGRTYYADSVKGRFTISRDNAKNTVYLQMNSLKPEDTAVYYCNAYYIYILYGGQTYTGDYWGQGTQVTVSS,high polyreactivity
14,QVQLVESGGGLVQAGGSLRLICAASGSIFAYNAMGWYRQAPGKERELVAAITDSGGSTFYADSVKGRFTISRDNAKNTVYLQMNSLKPEDTAVYYCATSGDRLVWGQGTQVTVSS,low polyreactivity
15,QVQIVETGGGLVQAGGSLRISCAASGSTLIRNVMGWYRQAPGKERELVAAINTRGTTTYYADSVKGRFTISRDNAKNTVYLQMNSLKPEDTAVYYCAAYAYSAYSPDGQRSRYYYWGLGTQVTVSS,high polyreactivity
16,QVQLVESGGGLVQAGGSLRLSCAASGFTFVRYTMGWYRKAPGKERELVAAITASGDRTYYADSVKGRFTISRDNAKNTVYLQMNSLKPEDTAVYYCAKEYWGVTPTYYYWGQGTQVTVSS,high polyreactivity
17,QVQLVESGRGLVQAGGSLRLSCAASGRIFFRYAMGWYRQAPGKAMELVAALPKSGGSTYADSVKGRFTISRDNAKTTVSLQMNSLKPEDTAVDDCATETTHYRDSGYIVKYRSEYWGQGTQVTVSS,low polyreactivity
18,KVQLVESGGGLVQAGGSLRLSCAASGRIFKYYAMGWYRQAPGKERELVAAISARGGSTYYADSVKGRFTISRDNAKNTVYLQMNSLKPEDTAVYYCAAPYLTTQYERMYYWGQGTQVTVSS,high polyreactivity
19,QGQLVESGGGLVQAGGSLRLSCAASGFIFGTYAMGWYRQAPGKERELVAAITGSGGDTYYADSVKGRFTISRDNAKNTVYLQMNSLKPEDTAVYYCAAVRPPTPSRRREDYWGQGTQVTVSS,low polyreactivity
20,QVQLVESGGGLVQAGGSLRLSCAASGFIFWVNAMGWYRQAPGKERELVAAISQSGGTTYYADSVKGRFTISRDNAKNTVYFQMNSLKPEDTAVYYCNALWRGHGRYNYWGQGTQVTVSS,low polyreactivity
21,QVQLVESGGGLVQAGGSLRLSCAASGRTFRRYAMGWYRQAPGKERELVAVITRGGNTNYADSVKGRFTISRDNAKNTVYLQMNSLKPEDTAVYYCAAELYNYGYDYWGQGTQVTVSS,low polyreactivity

row,Sequence,polyreactivity (PSR sort gate)
1,QVQLVESGGGLVQAGGSLRLSSAASGSIFDYYAMGWSRQAPGKERELVAAISGSGGSTYYADSVKGRFTISRDNAKNTVYLQMNSLKPEDTAVYYCNVYYRRRYDYWGQGTQVTVSS,high polyreactivity
2,QVQLVESGGGLVQAGGSLRLSCAASGSTFVRYAKGWYRQAPGKETELVAAISYRGGSTYYADSVKGRFTISRDNAKNTVYLQMNSLKPEDTAVYYCAAESRHVEGEYWGQGTQVTVSS,high polyreactivity
3,QVQLVESGGGLVQAGGSLRLSCAASGRTSRRNAMGWYRQAPGKERELVAATSGSGTSTYYADSVKGRFTISRDNAKNTVYLQMNSLKPEDTAVYYCNTDTSRRAVQYDYWGQGTQVTVSS,high polyreactivity
4,QVQLVESGGGLVQAGGSLRLSCAASGRTFNYYAMGWYRQAPGKERELVAAITSGSTTYYADSVKGRFTISRDNAKNTVYLQMNSLKPEDTAVYYCATAWRPADNSWGQGTQVTVSS,low polyreactivity
5,QVQHVESGGGLVQAGGSLRLSCDASGRIFLYKAMGWYRQAPGKERELVAAIDGGGTTYADSVKGRFTISRDNAKNTVYLQRNSLKPEDTAVYYCAADWYYQYSIYRYGYWGQGTQVTVSS,low polyreactivity
6,QVQLVESGGGLVQAGGSLRLSCAASGRTFYIYTMGWYRQAPGKERELVAAISGRGGRTYYADSVKGSFTISRDNAKNTVYLQMNSLKPEDTAVYYCARGGRVRYDYWGQGTQVTVSS,low polyreactivity
7,QVQLVESGGGLVQAGGSLRLSCAASGSTFHRYAMGWYRQAAGKERELVATITSRGGITYYADSVKGRFTISRDNAKNTVYLQMNSLKPEDTAVYYCNTEDGTTPQYGYDQGMYYWGQGTQVTVSS,low polyreactivity
8,QVQLVESGGGLVQEGGSLRLSCAASGSIFRKYAMGWYRQAPGKERELVAVITTDGSTNYADSVKGRFTISRDNAKNSVYLQMNSMNPEDTAVYYCNAVRSSIGTDIDYWGQGTQVTGSS,low polyreactivity
9,QVQLVDSGGGLVQAGGSLRLSCAASGFIFRYYAMGWYRQAPGTERELVAAISRSGGSTYYADSVKGRFTISRDNAKNTVYLQMYSLKPEDTAVYYCNRGDVIGRQYDSAYGYWGQGTQVTVSS,high polyreactivity
10,QVQLVESGGGLVQAGGSLRLSCAASGITFYKYAMGWYRQAPGKERELVAAITSTGGRTYYADSVKGRFTISGDNAKNSVYLQMNSLKPEDTAVYYCAKVFNQFIEHDYWGQGTQVTVSS,low polyreactivity
11,QVQLVESGGGLVQAGGSLRLSCAASGLTFSTYDMGWYRQAPGKERELVAAITSGDGSTYYADSVKGRFTISRDTAKNTVYLQMNSLKPEDTAVYYCAADYLEWYGDVLFPYDYWGQGTQVTVSS,low polyreactivity
12,QVQLVESGGGLVQAGGSLRLSCAASGSTFSAYGMGWYRQAPGKEMELVASISWNGGSTYYADSVQGRFTISGDNAKNTVYLQMNSLKPEDTAVYYCNTELVGHPDWLSWRYYYWGQGTQVTVSS,low polyreactivity
13,QVQLVDSGGGLVQAGGSLRLSCAASGFTFYSYAMGWYRPAPGKERELFAAISKSGGRSYYADSVKGRFTISRDNAKNTVYLQMKSLKPEDTGVYYCNTYGAFRSLETYDYWGQGSQVTVSS,high polyreactivity
14,QVQLVESGGGLVQAGGSLRLSCAASGSIFRFYTMGWYRQAPGKERELVASITWTGGSTYYADSVKGRFTISRDNAKNTVYLQMNSLKPEDTAVYYCAARRYRRLVGRYDYWGQGTQVTVSS,low polyreactivity
15,QVQLVESGGGLVQAGGSLRLSCAASGIIFYLYAMGWYRQARGKEWELVAAISRRGVSTYYADSLMGRFTISRDNAKNTVYLQMNSLKPEDTAVYYCAAAGFGYTGEEYWGQGTQVTVSS,high polyreactivity
16,QVQLVESGGGLVQAGGSLRLSCAASGRTFYANVMGWYRQAPGKERELVAAITSGGSSYYADSVKGRFTISRDTAKNTVYLQMNSLKPDDTAVYYCAAGSNLNGVWFDYWGQGTQVTVSS,low polyreactivity
17,QVQLVESGGGLVQAGGSLRLSCAASGNIFKYYAMGWYRQAPGKERELVAAISWGGSRTYYADSVKGRFTISRDNAKNTVSLQMNSLKPEDTAVYYCAARVYGVDGFGYWGLGTQVTVSS,high polyreactivity
18,QVQLVESGGGLVQAGGSLRLSCAASGSIFGLYAMGWSRQAPGKERELVASITGGGGTYYADSVKGRFTISRDNAKNTVYLQMNSLKPEDTAVYYCAAALYFGGDSYYYWGQGTQVTVSS,low polyreactivity
19,QVQLVESGGGLVQAGGSLRLSCAASGSTYTYALGWSRQAPGKERELVADITQSGGSTYYADSVKGRFTISRDNAKNTVYLQMNSLKTEDTAVYYCNAESRHVFEDEYWGQGTQVTGSS,low polyreactivity
20,QVQLGESGGVLVQAGGSLRLICAACGSTFSYYTMGWYRKAPGKEREVVAVIYTSGGNTYYADSVKGRFTISRDNAKNTVYLQMNSLKPEDTAVYYCAARWYGRGRYEYWGQGTQVTVSS,high polyreactivity
